{"source": "patent US20120141376A1", "about": "“PROSTATE SPECIFIC TRANSCRIPTS AND THE USE THEREOF FOR PROSTATE CANCER THERAPEUTICS AND DIAGNOSTICS” (priority 2006, published 2012)", "molecules": {"B1": {"name": "No. 18: DATAS fragment; golgi SNAP receptor complex member 2; exon extension (nucleic acid, listed as Homo sapiens)", "DNA": "GGCCTTAGGGGCACGAGGATGTGAATCGACCTACTACTTAATATAATGGCTGTGAGAAAAGGCCTCTTTCCTTTCCTTTCCACTTTTGCTCCACCCTATCAGGAGCCAGAAAGGCCTGATGGTGACAAGGTGTGAACCGTGTGGACAGTCCTGCACACAGGGCTCACTGTGGACACCTTCCCAGGGCACGCATCAGCTGTGTGAACAAAGCCACCAAAGCCATTCTTTCCCTCCCCCGC"}, "B2": {"name": "No. 11: DATAS fragment; cadherin-like 23; novel exon (nucleic acid, listed as Homo sapiens)", "DNA": "GACACCCTAGCTGCAAGGGAGGTTAGAAAAAATGAGGGACAGGATTATCATGGTCAGCATATTACTTGGGGGCCAGATATATCACTTCCCACACAAAAGCAGGCCTCTGTCAGTGAGGAAGAAGTGGAGAATGGATTTGGGGTGGGCATCTGACAGCATTTGCCACACTGCCCTCCCCAATCCTAATGCAGGCCAGTCAACGCACCACCCCCACTCCCCACCCACACTCCAACCCCCACAGTCCTAGGGTCTCTCAGGGAGACCATCGGTGGAATCCATAACATTCTAAGACCCTGCAGTTTGTAGGCAAAATCAGGCTTCCTTTGGGTGCCCCCG"}, "B3": {"name": "No. 5: DATAS fragment; N-acetyltransferase 6; exon extension (nucleic acid, listed as Homo sapiens)", "DNA": "GTAAAGGCATGTGGAATCCAGGGGCAGCTTTGGCTGGCACGCAGGATCCAGAGTCAGCTCAGCTGGGCTGGTACTCAGGATCAGCTCCATCCGGTGTGTAGGGTCTAGTGTAGGGGTCAGCTTGGCTGGGCCAGGGCTCAGAGTCAGCTCTTGCCTATGCACAGGATCCAGGTTCAGCTGAGTCAGGCTGGGAGCCAAGGTCACCTGCTGCTAGGTTGCAGGTGGCTCAGTGCCAGGCTGGAGGTTAAGACCCCAGTCTCCAGGCAGTAGCATCTCTTCAGACCACAGTGGCTCTCCTCATGTTGATGCTGGCCTCTGGGATGTTCCGCGTCCTAGCTCCGCACAGCTGGGTATCTCACTCAGTCGCCACCTCGGCCTCCCAACA"}, "B4": {"name": "No. 9: DATAS fragment; protein kinase C, zeta; novel exon (nucleic acid, listed as Homo sapiens)", "DNA": "GGGCAAAGGATGTTGCCCCTGTCCTGAAGGCTGTCGCCCGATCGCTCTATCCAAGGCTGCCCTGGGGCAGCGTCACCTGGGGGTCCTGCGGGGGCTTCTCAGCACAGCATCCAGCACTGCCACCTAGTGTGTTCCCGTCACGTCTCCTCCCCCCG"}, "B5": {"name": "No. 15: DATAS fragment; GenBank Human mRNA AF116698 (intronic hit); genomic hit (nucleic acid, listed as Homo sapiens)", "DNA": "CGGCGCACCTGGTACGTGGTGTATGTTCCATTTGTGCTGGCCACGGTGATGATGATGATGATGCCATCTCTCCGGCTACACTGCGAGCACAGATCACAGCTCTCTGTAGCTGATGCTGGCTCTACCCACTGTATTCGGG"}, "B6": {"name": "No. 8: DATAS fragment; ataxin 2-like; exon extension (nucleic acid, listed as Homo sapiens)", "DNA": "GTAGCAGGGCAGCAGACTTGGGAGAACGCGGGGGATACATCCGGCCCACTGGAAGAAAAGGGGGAGCTGTAGGATGGTTACTGCTGGTCAACAGCAGTGAGTACAAGGGCCTTACTCAAAACAGCAAGAAAGTTTACACACTATACAACCAGAGTCACCAACTTAAATGTCTAGAAGCTCAAGGCAGGTAACACAAGCAGGTAAATGGCCTCATGGGCATCATCGACAACTGGAATGCTTAAAGGAGTGGCAGGGATTCTGTTCCAGTCAACTCAAGCTACGCAGCAAGGCAAGCTCAGTTGACAGAATTTCCTGTAATTCAAAAGAAACTAAAAATTTTCTATGGCTTCTATTGATTTATTTATTTAGAGACAGGGTATCGCTCTGTTCCCC"}, "B7": {"name": "No. 13: DATAS fragment; ATPase, Class V, type 10A; exon extension (nucleic acid, listed as Homo sapiens)", "DNA": "GGAGGAGGTCGGCATCACCAGTAACAGGAATCCCTCTCCCTTTGAAGGCAGTGATGGCCAGCGACTTTGCAGTGCCGAAATTCCGATACCTGGAGAGGCTCTTGATTCTTCACGGGCATTGGTGCTACTCCCGACTTGCCAACATGGTGCTGTACTTCTTCTACAAAAACACAATGTTCGTGGGCCTCCTGTTTTGGTTCCAGTTTTTCTGTGGCTTCTCTGCATCTACCATGATTGACCAGTGGTATCTAATCTTCTTTAATCTGCTCTTCTCGTCACCTCCAACGA"}, "B8": {"name": "No. 14: DATAS fragment; zinc finger protein 142 (clone pHZ-49); exon extension (nucleic acid, listed as Homo sapiens)", "DNA": "CGGACCAGGACAAAATCATGACGATGCTCCATCCCAAGCCTTCCAGGTTACAAACCGCCTTTCCAGTTCGCTGGCTCTTATGATCCAGCTCCTGCCCGACGATGTGGACACTGTCATCACCTCCATTTTACAGATAGGAAAGCTGAGGCCCAGAGAAGCGAAGCGACTGTGTCTGTCCAAGACCACGCGCCCTCCTCCCTGTC"}, "B9": {"name": "No. 10: DATAS fragment; transferrin receptor (p90, CD71); novel exon (nucleic acid, listed as Homo sapiens)", "DNA": "GTGGCGAGGCGGTTCGGGACGGAGGACGCGCTAGTGTTCTTCTGTGTGGCAGTTCAGAATGATGGATCAAGCTAGATCAGCATTCTCTAACTTGTTTGGTGGAGAACCATTGTCATATACCCGGTTCAGCCTGCTCTCC"}, "B10": {"name": "No. 6: DATAS fragment; transmembrane protease, serine 2; exon extension (nucleic acid, listed as Homo sapiens)", "DNA": "GCCGAGGTCTTCCCTAAGGACAGGGAGACTTGTTGAGCTCCCAGTGTTGCCTGCAGCTCTCGCAGGGAGAGCACACTTCCCTCCCTGAGACCTCCACACGCACTACACAGATGGTCACAGCCCTATTCTCCAGCCCTGCCCCCGTCAGCTCATCCCAGCACCAACCCCTCTCCTGGGAAACCTGGATTCTCCTTACAACTGGCGGTGCCTGTGCTGAATGCAGCTCTGGAGTTCAGCTTCAGGGAAAGAAATTCCCAGCTCTGAAACTATAGGGCTCTATCAGTGCCATGGAATCCCCCTCTTATTCACCCAACGGCTTGGTTCTGCTGAACCAATTTCCCACTCCTCACTGAACCCCACCCAGGACACACAGGCGCCTGTTTCCCCTCTGGCATGCACACACTCTTCTGGAGCACACGCGACCCTCCCTAGGCCGCCTGCTTCTCGGCTCCCCTGCACA"}, "B11": {"name": "No. 19: DATAS fragment; GenBank human mRNA AK054845; novel exon (nucleic acid, listed as Homo sapiens)", "DNA": "GGGGACAGGCAGAGGTTGCACTGCACTCCAGCCTGGGTGACAGATCAAGATTCTGTCTCAAGTAATAATAATGATGATGATGATGATGATGATGATGATGATAATAACACACCTTGTTAATGTTAATTCACTGTGTTAAATCAATTAACTCATTTTCTCATAATTACCCTTGAACGAGTAAGTTATTGACATTCTCTCCATGGGAAAAAAAACCCTTGGAGAAAGGTAACTTGAATATGGCCAAATGGGCAATTTGGATAGAACTGGGATTTGAACCTAGGACATCTGATTCCACATCCTTTTCATGAGCCACAATGCTCTACATGTGGTTTTATTTCTTGGATCACATGTAACACATCCATAAAAGTGCCTCCCCCCG"}}, "data": [{"tested_on": "HLA class I (e.g. HLA-A2) expressing adherent 293T cells", "assay": "CTL assay on reverse transfected microarray (caspase activation, fluorescent Z-VAD)", "format": "cell-based, human", "conditions": "HLA-matched CD8+ T cells from prostate cancer patients incubated 4 hours on array; red fluorescent signal = positive response", "excerpt": "Additional patient samples were procured for the cytotoxic T Lymphocyte (CTL) assay. […] (PBMC) were isolated from blood drawn from patients with relevant clinical parameters, and with patient consent. Clinical data generally included patent history, physiopathology, and parameters relating to prostate cancer physiology. PBMCs were collected from 6 prostate cancer patients that met the study requirements. Duplicate samples were obtained from a single patient.\nThe 192 selected DATAS fragments were PCR amplified out of the library vector and directionally cloned into a eukaryotic expression vector down stream from staggered start site initiation codons. This configuration allows the DATAS fragment to be expressed in all the open reading frames, which is required because the correct reading frame is not always readily apparent.\nPlasmid preparations were performed and the expression vectors containing the selcted DATAS fragment clones were re-arrayed into 96 well plates, which were subsequently used to spot glass slides for use in the CTL assay previously disclosed in International Patent Application No. PTC/US2005/032392, the disclosure of which is incorporated by reference in its entirety.\nA design file containing the desired microarray positions of the DATAS expression vectors was uploaded into a high resolution scanner. The expression vectors containing the DATAS fragments were mixed with gelatin and lipofectamine and then spotted in duplicate in a pattern that matched the design file uploaded into the high resolution microarray scanner. The following positive controls, negative controls and experimental samples were spotted on the array.\nThe spotted arrays were then overlaid with HLA class I (e.g. HLA-A2) expressing adherent 293T cells and cultured for 48-72 hours to allow cells time to express vector-encoded transcripts.\nThe assay for CTL reactivity was then performed by incubating HLA-matched CD8^+ T cells from normal and prostate cancer patients on cultured reverse transfected microarray slides for 4 hours. Prior to incubation with the array, T cells from normals or patients may need to be expanded in vitro, to a small or large extent, to enhance the frequency of responding T cells. An inhibitor of activated caspase, fluorescence-tagged (sulfo-Rhodamine)-Z-VAD, is present throughout the cell incubation to bind caspases that become activated when antigen expressing adherent cells on certain spots are induced to die by the CTL. The slides are then washed to remove unbound fluorescent Z-VAD and 2-color (Green and Red) fluorescence images of the microarray slides are obtained with the microarray scanner.\nAnalysis and confirmation of data is then determined by visual inspection of the scanned image. The success of the reverse transfection is evaluated by observing green fluorescence at EGFP vector control spots. Then the fluorescence threshold(s) are adjusted on microarray scanner as necessary to establish relevant background and positive control signal intensities. […] Using the coordinate locations for the spots, the cDNAs yielding positive responses are identified.", "values": [{"molecule": "B1", "Patient ID with positive hit": "FRJY5"}, {"molecule": "B2", "Patient ID with positive hit": "MSMPB; P72"}, {"molecule": "B3", "Patient ID with positive hit": "EYGRT"}, {"molecule": "B4", "Patient ID with positive hit": "EYGRT"}, {"molecule": "B5", "Patient ID with positive hit": "MSMPB"}, {"molecule": "B6", "Patient ID with positive hit": "MSMPB"}, {"molecule": "B7", "Patient ID with positive hit": "MSMPB"}, {"molecule": "B8", "Patient ID with positive hit": "MSMPB"}, {"molecule": "B9", "Patient ID with positive hit": "MSMPB"}, {"molecule": "B10", "Patient ID with positive hit": "EYGRT"}, {"molecule": "B11", "Patient ID with positive hit": "EYGRT"}]}]}
